From patent US20240301031A1 (JIANGSU HENGRUI PHARMACEUTICALS, published 2024) come the findings set out here.

Test [1] has as its target T1, BAFF (R&D Systems, 7537-BF) (UniProt Q9Y275 134-285). The test can be described thus: cell-based or functional assay.
The target in test [2] is T2, human APRIL (5860-AP-010/CF, R&D Systems) (human, UniProt O75888 115-250, limits assumed).
T2 sequence (looked up): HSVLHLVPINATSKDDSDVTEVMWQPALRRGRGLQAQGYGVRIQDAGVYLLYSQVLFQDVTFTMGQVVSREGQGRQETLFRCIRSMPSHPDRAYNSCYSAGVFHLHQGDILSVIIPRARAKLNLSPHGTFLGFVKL
Put plainly: cell-based or functional assay.

The target in test [3] is T2, human APRIL (5860-AP-010/CF, R&D …). The test can be described thus: competition ELISA: biotin-labeled APRIL to coated TACI. Here is the method: (§1) A receptor protein was diluted to 2 μg/mL with PBS at pH 7.4 (BasalMedia, B320) and added to a 96-well microplate (Corning, 3590) at 100 μL/well. The plate was incubated at 4° C. overnight. After the liquid was discarded, 200 μL of 1% Casein blocking solution (Thermo, 37528) was added to each well for blocking, and the plate was incubated at 37° C. for 2 h. After the blocking was completed, the blocking solution was discarded, and the plate was washed 3 times with a PBST buffer (PBS at pH 7.4 containing 0.1% tween-20) for later use. A biotin-labeled ligand protein at a fixed concentration was mixed with the antibody or fusion protein diluted in gradient, pre-incubated at 37° C. for 30 min, and added to a blocked microplate. The plate was incubated at 37° C. for 1.5 h. After the incubation was completed, the plate was washed 3 times with PBST. 100 μL of streptavidin-HRP (Invitrogen, 434323, diluted at a ratio of 1:4000) was added to each well, and the plate was incubated at 37° C. for 1 h. The supernatant was removed, and the plate was washed 3 times with PBST. […] The plate was read for absorbance values at 450 nm on a microplate reader, the curves for the inhibition of the binding of the ligands to the receptors were fitted with software, and the IC₅₀ values were calculated. […]
A general note: An ELISA detects its analyte on a solid surface through an enzyme-linked reagent.

In test [4] the target is T3, human BAFF (10056-HNCH, Sino biological) (human, UniProt Q9Y275 134-285).
T3 construct: Bought protein
The test can be described thus: competition ELISA: biotin-labeled BAFF to coated BAFF-R. The method, boiled down: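 Receptor coated at 2 μg/mL in PBS pH 7.4 overnight at 4° C and casein-blocked; fixed-concentration biotinylated ligand preincubated 30 min at 37° C with serially diluted antibody/fusion protein, then bound 1.5 h at 37° C. Streptavidin-HRP/TMB read at 450 nm; IC₅₀ from fitted binding-inhibition curves.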

For test [5], the target named is T1, BAFF (R&D Systems, 7537-BF). The test can be described thus: cell-based or functional assay. The source holds these as a separate data set.
The target of test [6] is T3, human BAFF (10056-HNCH, Sino biological). Put plainly: competition ELISA: biotin-labeled BAFF to coated TACI. Here is the method: as §1
The target of test [7] is T4, BAFF (ACROBiosystems, BAF-H5248) (UniProt Q9Y275 134-285).
T4 construct: Bought protein used in the ELISA with coated test sample
Put plainly: ELISA, fusion protein coated, BAFF titrated, Anti-His-HRP. Here is the method:
The binding activity of the TACI fusion proteins for BAFF and APRIL was assayed by the ELISA method (coating a test fusion protein sample). The specific procedures were as follows:
The test sample was diluted to 2 μg/mL with a PBS (BasalMedia, B320) buffer at pH 7.4 and added to a 96-well microplate (Corning, 3590) at 100 μL/well. The plate was incubated at 4° C. overnight. After the liquid was discarded, 300 μL of 5% skim milk (BD, 232100) diluted with PBS was added to each well for blocking, and the plate was incubated at 37° C. for 2 h. After the blocking was completed, the blocking solution was discarded, and the plate was washed 3 times with a PBST buffer (PBS at pH 7.4 containing 0.1% tween-20). 100 μL of BAFF (ACROBiosystems, BAF-H5248) or APRIL (R&D Systems, 5860-AP-010/CF) diluted in a gradient was added to each well, and the plate was incubated at 37° C. for 1 h. After the incubation, the plate was washed 3 times with PBST. When detecting the binding to BAFF, 100 μL of Anti-His-HRP (Sino biological, 105327-MM02T-H, diluted at a ratio of 1:2000) was added to each well; when detecting the binding to APRIL, 100 μL of anti-HA-HRP (Abcam, ab1190, diluted at a ratio of 1:4000) was added to each well. The plate was incubated at 37° C. for 1 h. The plate was washed 3 times with PBST. 100 μL of TMB chromogenic substrate (KPL, 5120-0077) was added to each well, and the plate was incubated at room temperature for 10-15 min. The reaction was stopped by adding 50 μL of 1 M H₂SO₄ to each well. The plate was read for absorbance values at 450 nm on a microplate reader, the binding curves of the antibodies to an antigen were fitted with software, and the EC₅₀ values were calculated.

The target in test [8] is T3, human BAFF (10056-HNCH, Sino biological). The test can be described thus: competition ELISA: BAFF-R coated on the plate, biotin-labelled BAFF at a fixed concentration pre-incubated with the diluted sample, streptavidin-HRP, OD450 (blocked ligand-receptor pair: BAFF/BAFF-R). On the procedure: as §1
For test [9] the target is unchanged. Put plainly: competition ELISA: biotin-labeled BAFF to coated BCMA. On the procedure: as §1
Test [10] has the same target. Put plainly: competition ELISA: biotin-labeled BAFF to coated BAFF-R. On the procedure:
The blocking activity of the antibodies and the fusion proteins for receptors and ligands such as BAFF/BAFF-R, BAFF/BCMA, BAFF/TACI, APRIL/BCMA, APRIL/TACI, and p40/IL-12R1 was assayed by the ELISA method. The specific procedures were as follows:
A receptor protein was diluted to 2 μg/mL with PBS at pH 7.4 (BasalMedia, B320) and added to a 96-well microplate (Corning, 3590) at 100 μL/well. The plate was incubated at 4° C. overnight. After the liquid was discarded, 200 μL of 1% Casein blocking solution (Thermo, 37528) was added to each well for blocking, and the plate was incubated at 37° C. for 2 h. After the blocking was completed, the blocking solution was discarded, and the plate was washed 3 times with a PBST buffer (PBS at pH 7.4 containing 0.1% tween-20) for later use. A biotin-labeled ligand protein at a fixed concentration was mixed with the antibody or fusion protein diluted in gradient, pre-incubated at 37° C. for 30 min, and added to a blocked microplate. The plate was incubated at 37° C. for 1.5 h. After the incubation was completed, the plate was washed 3 times with PBST. 100 μL of streptavidin-HRP (Invitrogen, 434323, diluted at a ratio of 1:4000) was added to each well, and the plate was incubated at 37° C. for 1 h. The supernatant was removed, and the plate was washed 3 times with PBST. 100 μL of TMB chromogenic substrate (KPL, 5120-0077) was added to each well, and the plate was incubated at room temperature for 10-15 min. The reaction was stopped by adding 50 μL of 1 M H₂SO₄ to each well. The plate was read for absorbance values at 450 nm on a microplate reader, the curves for the inhibition of the binding of the ligands to the receptors were fitted with software, and the IC₅₀ values were calculated.
The source holds these as a separate data set.

Like-named read-outs stand apart in the source and are kept apart here.

B1: RCT-18 (Telitacicept) (Fc fusion)
chain: SRVDQEERFPQGLWTGVAMRSCPEEQYWDPLLGTCMSCKTICNHQSQRTCAAFCRSLSCRKEQGKFYDHLLRDCISCASICGQHPKQCAYFCENKLRSPVNLPPELDKTHTCPPCPAPEAEGAPSVFLFPPKPKDTLMISRTPEVTCVVVDVSHEDPEVKFNWYVDGVEVHNAKTKPREEQYNSTYRVVSVLTVLHQDWLNGKEYKCKVSNKALPSSIEKTISKAKGQPREPQVYTLPPSRDELTKNQVSLTCLVKGFYPSDIAVEWESNGQPENNYKTTPPVLDSDGSFFLYSKLTVDKSRWQQGNVFSCSVMHEALHNHYTQKSLSLSPGK
notes: Positive control; TACI part is positions 13-118 of the extracellular region of human TACI, the rest is Fc
A word on the IC50: it is the concentration that gives 50% inhibition. For orientation: EC50 means the concentration that produces a half-maximal response. On to B1, for which the “IC50 (nM) for the inhibition of the BAFF-induced B cell proliferation” value was 0.382 nM in test [1] and 0.386 nM in [5]. In test [2], the “IC50 (nM) for the inhibition of the APRIL-induced B cell proliferation” value amounted to 1.09 nM. Moreover, the half-inhibitory concentration (IC50) in test [3] is 3.3 nM; in test [4], 27.5 nM; in test [6], 0.779 nM; in test [9] it was 0.973 nM; in test [10], 19.2 nM. In [7], this molecule displayed an EC50 of 96.2 nM. In [8], the “IC50 (read off the curve)” value was approximately 3 nM.
